# According to patent publication US20110152176A1, “AGR-MEDIATED INHIBITION AND DISPERSAL OF BIOFILMS” (priority 2008, published 2011):
# B1: proteinase K: protease enzyme (Sigma-Aldrich) suspended in water and added to the media reservoir (protein, UniProt P06873 106-384, looked up)
# Proteinase K: AAQTNAPWGLARISSTSPGTSTYYYDESAGQGSCVYVIDTGIEASHPEFEGRAQMVKTYYYSSRDGNGHGTHCAGTVGSRTYGVAKKTQLFGVKVLDDNGSGQYSTIIAGMDFVASDKNNRNCPKGVVASLSLGGGYSSSVNSAAARLQSSGVMVAVAAGNNNADARNYSPASEPSVCTVGASDRYDRRSSFSNYGSVLDIFGPGTSILSTWIGGSTRSISGTSMATPHVAGLAAYLMTLGKTTAASACRYIADTANKGDLSNIPFGTVNLLAYNNYQA
# Assays:
# [1] = system: SH1000 biofilm; assay: Microtiter plate biofilm formation; format: cell-based, Staphylococcus aureus; settings: proteinase K added to SH1000 (data not shown)
# Method: (§1) Biofilm experiments. Microtiter plate biofilms were performed as described (Shanks et al., 2005) except that the plates were incubated at 37° C. with shaking at 200 rpm for 12 hours. For flow cell experiments, AIPs were generated using the DnaB intein method, and the AIP concentrations were determined as previously described (Malone et al., 2007). AIPs stocks (20 mM) were stored in 100 mM phosphate (pH 7), 50 mM NaC1, 1 mM tris(2-carboxyethyl) phosphine (TCEP) and were diluted into the biofilm flow medium to a final concentration of 50 nM. When required, […] of erythromycin and/or chloramphenicol were added to the flow cell media to maintain plasmids. The growth medium for flow cell biofilms consisted of 2% TSB plus 0.2% glucose unless otherwise indicated. Flow cell biofilm experiments and confocal microscopy were performed as previously described (Yarwood et al., 2004). Flow cells were inoculated with overnight cultures diluted 1:100 in sterile water and laminar flow (170 ml/min) was initiated after one hour incubation. […] Biofilm biomass was quantified with the COMSTAT program (Heydorn et al., 2000) and percent biomass detached was calculated by subtracting biomass present at day 4 from day 2. To quantitate the number of bacteria detaching from a biofilm, 1 ml of flow cell effluent was collected on ice at indicated time points. […]
# [2] = system: S. aureus SH1000 biofilm; assay: Flow cell biofilm detachment (CLSM, COMSTAT biomass, effluent CFU); format: cell-based, Staphylococcus aureus; settings: SH1000 2-day biofilm, proteinase K 2 mg/mL
# Method: as §1, with “2004).” for “2004). Flow cells were inoculated with overnight cultures diluted 1:100 in sterile water and laminar flow (170 ml/min) was initiated after one hour incubation.”
# AIP detaches S. aureus biofilms. […] To confirm that AIP-I caused detachment, the inventors counted viable S. aureus cells in the effluent media (FIG. 2C). […]
molecule,measurement,setting,value
B1,biofilm development in microtiter plate,[1],biofilms were unable to develop
same,biofilm detachment observed by CLSM,[2],rapid detachment over 12 hrs
